{"source": "paper PMC5903163", "target": "glucose-regulated protein 78 (GRP78) (Mesocricetus auratus (endogenous in BHK-21)) (UniProt P07823)", "sequence (P07823 19-654)": "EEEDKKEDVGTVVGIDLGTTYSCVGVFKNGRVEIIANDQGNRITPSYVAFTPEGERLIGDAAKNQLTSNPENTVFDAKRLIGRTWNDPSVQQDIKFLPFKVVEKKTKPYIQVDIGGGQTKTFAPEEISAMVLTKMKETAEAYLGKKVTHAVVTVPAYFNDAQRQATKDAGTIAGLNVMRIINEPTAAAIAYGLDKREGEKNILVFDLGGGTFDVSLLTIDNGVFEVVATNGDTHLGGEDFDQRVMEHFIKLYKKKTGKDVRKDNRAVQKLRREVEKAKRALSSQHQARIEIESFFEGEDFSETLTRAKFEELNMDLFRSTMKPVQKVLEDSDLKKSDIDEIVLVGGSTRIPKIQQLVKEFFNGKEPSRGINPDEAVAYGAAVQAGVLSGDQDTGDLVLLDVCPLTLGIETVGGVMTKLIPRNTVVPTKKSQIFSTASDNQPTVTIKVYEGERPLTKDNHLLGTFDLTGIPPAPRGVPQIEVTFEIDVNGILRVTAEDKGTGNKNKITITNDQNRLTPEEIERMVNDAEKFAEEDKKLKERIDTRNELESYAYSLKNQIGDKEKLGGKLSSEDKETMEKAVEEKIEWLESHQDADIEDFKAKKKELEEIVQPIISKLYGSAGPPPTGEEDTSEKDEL", "data": [{"substance": "Tembusu virus (TMUV) JS804, whole virus particle (complex)", "values": [{"measurement": "TMUV RNA (qRT-PCR, 24 h) in BHK-21 cells pre-incubated with 100 μg/ml anti-GRP78 N-terminal antibody (ab32618) before infection, against rabbit IgG treated cells", "result": 50, "unit": "%"}]}]}
